Test results published in patent publication US20240052052A1 (published 2024).

T1: human CD24 (human, UniProt P25063 27-59, heavily glycosylated, GPI-anchored (as described in the background))
T1 chain: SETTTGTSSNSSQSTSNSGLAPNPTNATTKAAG

T2: Human CD24-mFc (human, UniProt P25063 27-59)
T2 chain: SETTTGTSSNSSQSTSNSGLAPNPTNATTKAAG


Key:
human CD24 [1] = target: T1, human CD24; assay: FACS binding; DoHH2 cells
Human CD24-mFc [2] = target: T2, Human CD24-mFc; assay: SPR (BIAcore); hIgG4
human CD24 [3] = target: T1, human CD24; assay: FACS binding; MCF7 cells
Human CD24-mFc [4] = target: T2, Human CD24-mFc; assay: BLI (Gatorprime)
Human CD24-mFc [5] = target: T2, Human CD24-mFc; assay: SPR (BIAcore); hIgG1
human CD24 [6] = target: T1, human CD24; assay: FACS binding; Nalm6 cells
Human CD24-mFc [7] = target: T2, Human CD24-mFc; assay: SPR (BIAcore)
human CD24 [8] = target: T1, human CD24; assay: FACS binding; DoHH2 cells
human CD24 [9] = target: T1, human CD24; assay: FACS binding; Huh7 cells

| Binder | EC50 (human CD24 [3]) | EC50 (human CD24 [6]) | Kd (Human CD24-mFc [7]) | EC50 (human CD24 [8]) | EC50 (human CD24 [9]) | other results |
| --- | --- | --- | --- | --- | --- | --- |
| SN3 (antibody, V domains shown) VH: QVQLKESGPGLVAPSQSLSITCTVSGFSLTSYGVHWVRQPPGKGLEWLGVIWAGGSTNYNSALMSRLSISKDNSKSQVFLKMNSLQTDDTAMYYCAVYYGYLFFAYWGQGTLVTVSA VL: ENVLTQSPAIMSASPGEKVTMTCSASSSVSYMHWYQQKSTTSPKLWIYDTSKLASGVPGRFSGSGSGNSYSLTISSMEAEDVATYYCFQGSGYPLTFGGGTKLEIK | – | – | – | – | – | EC50 (human CD24 [1]): 1.87 nM |
| ch81A1F8-hIgG4 (antibody, V domains shown) VH: EVQLQQSGPELVKPGASVKISCKATGYLFTGYYMNWVKQSPEKSLEWIGEINPNTGDTNNNQKFKAKATMTVDRSSSTAYMQLKRLTSEDSAVYYCVRRDYGTSLDYWGQGTTLTVSS VL: DVQITQSPSYLAASPGETITINCRASKSINKYLAWYQEKPGKTNKLLIHSGSTLQSGIPSRFSGSRSGTDFTLTISNLEPEDFAMYYCQQHNEYPITFGAGTKLELK | 4.09 nM | – | – | – | – | Kd (Human CD24-mFc [2]): 2.23 nM; Kd (Human CD24-mFc [4]): 0.241 nM |
| 81A1F8-hIgG1 (antibody, V domains shown) VH: EVQLQQSGPELVKPGASVKISCKATGYLFTGYYMNWVKQSPEKSLEWIGEINPNTGDTNNNQKFKAKATMTVDRSSSTAYMQLKRLTSEDSAVYYCVRRDYGTSLDYWGQGTTLTVSS VL: DVQITQSPSYLAASPGETITINCRASKSINKYLAWYQEKPGKTNKLLIHSGSTLQSGIPSRFSGSRSGTDFTLTISNLEPEDFAMYYCQQHNEYPITFGAGTKLELK | – | – | – | – | – | Kd (Human CD24-mFc [5]): 2.29 nM |
| 110D4G4 (antibody, V domains shown) VH: EVQLQQSGPGLVKPGASVKISCRASGYLFTGYYMNWVKQSPEKSLEWIGEINPNTGDPRYDQKFKAKATLTVDRSSSTAYMHLKSLTSEDSAVYFCARRDYGTSLDYWGQGTTLTVTS VL: DVQITQSPSYLAASPGETITINCRASKSISKYLAWYQEKPGKTNKLLIYSGSTLQSGIPSRFSGSGSGSDFTLTISSLEPEDFAMYYCQQHNEYPLTFGAGTKLELK | – | 24.6 nM | 0.124 nM | 0.61 nM | – | – |
| ch110D4G4-hIgG4 (antibody, V domains shown) VH: EVQLQQSGPGLVKPGASVKISCRASGYLFTGYYMNWVKQSPEKSLEWIGEINPNTGDPRYDQKFKAKATLTVDRSSSTAYMHLKSLTSEDSAVYFCARRDYGTSLDYWGQGTTLTVTS VL: DVQITQSPSYLAASPGETITINCRASKSISKYLAWYQEKPGKTNKLLIYSGSTLQSGIPSRFSGSGSGSDFTLTISSLEPEDFAMYYCQQHNEYPLTFGAGTKLELK | – | – | – | – | 1.72 nM | – |
| 81A1F8 (antibody, V domains shown) VH: EVQLQQSGPELVKPGASVKISCKATGYLFTGYYMNWVKQSPEKSLEWIGEINPNTGDTNNNQKFKAKATMTVDRSSSTAYMQLKRLTSEDSAVYYCVRRDYGTSLDYWGQGTTLTVSS VL: DVQITQSPSYLAASPGETITINCRASKSINKYLAWYQEKPGKTNKLLIHSGSTLQSGIPSRFSGSRSGTDFTLTISNLEPEDFAMYYCQQHNEYPITFGAGTKLELK | – | 11.4 nM | 0.095 nM | 0.819 nM | – | – |
| 101H9G9A2-hIgG (antibody, V domains shown) VH: QVQLLQPGAELVRPGSSVKLSCKASDYTFTSYWMDWVKQRPGQGLEWIGNIYPSDSKTHYNQKFKDKATLTVDKSSSTAYMQLNSLTSEDSAVYYCARRGGYYAYAMDYWGQGTSVTVSS VL: DIVMTQSPSSLSVSAGEKVTMRCKSSQSLLNSGNQDNYLAWYQQKPGQPPKLLLYGARIRESGVPDRFIGSGSGTDFTLTISSVQAEDLAVYYCQNDHSYPYTFGGGTKVEIK | 2.2 nM | – | – | – | 0.815 nM | – |
| 101H9G9A2 (antibody, V domains shown) VH: QVQLLQPGAELVRPGSSVKLSCKASDYTFTSYWMDWVKQRPGQGLEWIGNIYPSDSKTHYNQKFKDKATLTVDKSSSTAYMQLNSLTSEDSAVYYCARRGGYYAYAMDYWGQGTSVTVSS VL: DIVMTQSPSSLSVSAGEKVTMRCKSSQSLLNSGNQDNYLAWYQQKPGQPPKLLLYGARIRESGVPDRFIGSGSGTDFTLTISSVQAEDLAVYYCQNDHSYPYTFGGGTKVEIK | – | 2.55 nM | 1.24 nM | 0.218 nM | – | – |
| 33E7E12 (antibody, V domains shown) VH: EVKLEESGGGLVQPGGSMKLSCFVSGFTFSNSWMNWVRQSPEKGLEWVAQIQLKSDNYATRYVESVRGRFIISRDDSKSSVSLQMNNLRTEDTGIYYCSSGTDYWGQGTTLTVSS VL: not shown | – | 21.5 nM | 3.08 nM | 5.08 nM | – | – |
| 107D10D11-hIgG (antibody, V domains shown) VH: QIQLKQSGPGLVQPSQSLSITCTVSGFSLSSYGVNWVRQSPGKGLEWLGMIWSGGNTDYNAAFISRVSFTKDNSKSQVFFTMNSLQADDTAIYYCARIWYYGMDYWGQGTSVTVSS VL: DIVMTQSQKFMSTTVGDRVSITCKASQNVGTAVAWFQQKPGQSPKILIYSASIRYPGVPDRFTGSGSGTDFTLTTSNVQSEDLADYFCLQYITFPRTFGGGTKLYIK | 2.19 nM | – | – | – | 1.39 nM | – |
